Laboratory results from PMC6532764.
Where two headings read alike, the source gives them in different places.

What was measured:
[1] = molecular target: T1, CspC (C-terminal His-tagged) (Staphylococcus aureus Newman, UniProt O33592 1-66); experiment: EMSA
[2] = molecular target: T1, CspC (C-terminal His-tagged); experiment: EMSA; remark: listed apart in the source

B1: ssDNA1 (ssDNA)
DNA: GTCGACTTTTTTTTTTTTTTTTTTTT
Question: Does B1 bind [1]?
Answer: binds

B2: ssDNA3 (ssDNA)
DNA: AAGTGTATAATGAAAG
Question: Does B2 bind [2]?
Answer: no binding
